Measured values published in US20150098941A1 (Chugai, published 2015).
Changes are numbered by the printed parent chain. In names and notes the source's numbering stands.

B1: Fc-modified humanized anti-GPC3 antibody V209 (S239D/A330L/I332E) (antibody, human IgG1)
heavy: QVQLVQSGAEVKKPGASVKVSCKASGYTFTDYEMHWVRQAPGQGLEWMGALDPKTGDTAYSQKFKGRVTLTADKSTSTAYMELSSLTSEDTAVYYCTRFYSYTYWGQGTLVTVSSASTKGPSVFPLAPSSKSTSGGTAALGCLVKDYFPEPVTVSWNSGALTSGVHTFPAVLQSSGLYSLSSVVTVPSSSLGTQTYICNVNHKPSNTKVDKKVEPKSCDKTHTCPPCPAPELLGGPDVFLFPPKPKDTLMISRTPEVTCVVVDVSHEDPEVKFNWYVDGVEVHNAKTKPREEQYNSTYRVVSVLTVLHQDWLNGKEYKCKVSNKALPLPEEKTISKAKGQPREPQVYTLPPSRDELTKNQVSLTCLVKGFYPSDIAVEWESNGQPENNYKTTPPVLDSDGSFFLYSKLTVDKSRWQQGNVFSCSVMHEALHNHYTQKSLSLSPGK
VL: DVVMTQSPLSLPVTPGEPASISCRSSQSLVHSNGNTYLHWYLQKPGQSPQLLIYKVSNRFSGVPDRFSGSGSGTDFTLKISRVEAEDVGVYYCSQNTHVPPTFGQGTKLEIK
notes: G1m(1) allotype
B2: Fc-modified humanized anti-GPC3 antibody V922 (S239D/K326T/I332E) (antibody, human IgG1)
heavy: B1 heavy with K324T, L328A
VL: B1 VL
B3: Fc-modified humanized anti-GPC3 antibody V22 (I332E) (antibody)
heavy: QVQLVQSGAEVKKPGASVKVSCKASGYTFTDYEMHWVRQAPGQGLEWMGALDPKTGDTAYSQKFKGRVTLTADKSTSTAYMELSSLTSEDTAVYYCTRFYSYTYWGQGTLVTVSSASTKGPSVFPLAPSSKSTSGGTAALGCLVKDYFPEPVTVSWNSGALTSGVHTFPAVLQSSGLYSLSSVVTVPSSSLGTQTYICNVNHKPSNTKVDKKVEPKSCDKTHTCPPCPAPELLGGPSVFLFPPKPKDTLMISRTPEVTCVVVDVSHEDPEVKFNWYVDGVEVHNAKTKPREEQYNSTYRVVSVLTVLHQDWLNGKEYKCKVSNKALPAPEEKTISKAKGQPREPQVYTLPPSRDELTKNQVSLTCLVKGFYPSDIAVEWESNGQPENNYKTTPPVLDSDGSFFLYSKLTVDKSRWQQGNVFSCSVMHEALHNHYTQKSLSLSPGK
VL: B1 VL
notes: also called pC-aGPChl (22)
B4: Fc-modified humanized anti-GPC3 antibody V212 (S239D/S298A/I332E) (antibody, human IgG1)
heavy: B1 heavy with S296A, L328A
VL: B1 VL
notes: also called pC-aGPChl (212)
B5: Fc-modified humanized anti-GPC3 antibody V209 nG1m(1) allotype (S239D/A330L/I332E/D356E/L358M) (antibody, human IgG1, name in EU numbering)
heavy: B1 heavy with D354E, L356M
VL: B1 VL

Each binder was assayed against T1, fused protein GST-GPC3 (GST and human glypican-3 peptide of SEQ ID NO: 16) (human, UniProt P51654 524-563) (assay: SPR (BIACORE 3000), CHO culture supernatant over immobilized GST-GPC3).
T1 construct: It was immobilized on a BIACORE chip; also called GPC3 peptide; not shown: GST (glutathione S-transferase)
T1 sequence (P51654 524-563 limits assumed): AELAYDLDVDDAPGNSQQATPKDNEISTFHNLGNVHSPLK
Method: This was introduced into 2×10⁶/0.6 ml PBS(−) of CHO cells (strain DXB11S) according to an electroporation method under a condition of 1.5 kV and 25 uF. The cells were incubated in a 8% CO₂ incubator at 37° C. The cells were screened in CHO-S-SFMII medium (Invitrogen) containing 400 μg/ml of geneticin. Selected cells were inoculated into a CHO-S-SFMII medium containing 400 μg/ml geneticin in a 96-well plate at 0.4 cells/100 μl/well, and the cells were cloned according to a limiting dilution method. The culture supernatant was analyzed with BIACORE 3000. The antigen was quantified using a chip with fused protein GST-GPC3 (antigen GST and human glypican-3 shown by SEQ ID NO:16) immobilized thereon, and high-expression cells were selected.

Binder	binding result
B1	binds
B2	binds
B3	binds
B4	binds
B5	binds
